How the values were obtained:
[1] = molecular target: actin filaments (actin purified from rabbit skeletal muscle, polymerized) (rabbit, UniProt P68135 1-377); assay: co-sedimentation
[2] = molecular target: T1, GST fusion protein with α catenin (mouse, UniProt P26231 1-906); assay: pull-down
T1 sequence (looked up): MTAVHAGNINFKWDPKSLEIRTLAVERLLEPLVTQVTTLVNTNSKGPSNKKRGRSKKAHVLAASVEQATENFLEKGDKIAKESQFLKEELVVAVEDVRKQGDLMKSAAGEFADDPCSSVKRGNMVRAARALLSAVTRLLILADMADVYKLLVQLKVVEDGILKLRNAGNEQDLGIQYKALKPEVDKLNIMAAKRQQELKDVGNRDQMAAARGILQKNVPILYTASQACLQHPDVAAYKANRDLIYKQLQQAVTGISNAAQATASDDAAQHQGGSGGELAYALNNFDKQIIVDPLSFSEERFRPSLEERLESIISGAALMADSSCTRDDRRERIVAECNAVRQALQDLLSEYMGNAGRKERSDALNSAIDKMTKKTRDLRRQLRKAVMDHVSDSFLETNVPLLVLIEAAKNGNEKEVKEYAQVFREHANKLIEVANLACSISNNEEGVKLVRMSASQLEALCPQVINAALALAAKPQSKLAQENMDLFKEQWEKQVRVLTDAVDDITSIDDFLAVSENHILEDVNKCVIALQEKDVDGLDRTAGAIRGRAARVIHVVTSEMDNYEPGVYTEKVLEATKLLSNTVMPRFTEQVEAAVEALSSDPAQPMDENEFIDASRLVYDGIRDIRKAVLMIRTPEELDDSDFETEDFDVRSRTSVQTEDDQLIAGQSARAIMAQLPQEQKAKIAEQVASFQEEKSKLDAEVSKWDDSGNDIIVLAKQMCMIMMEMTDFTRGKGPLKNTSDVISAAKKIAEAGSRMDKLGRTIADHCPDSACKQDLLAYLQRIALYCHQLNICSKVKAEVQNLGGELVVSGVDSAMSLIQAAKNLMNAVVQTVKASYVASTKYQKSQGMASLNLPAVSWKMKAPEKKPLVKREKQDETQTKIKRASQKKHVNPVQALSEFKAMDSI

B1: recombinant carboxyl-terminal half of ZO-1 (C-ZO-1; 863–1745 aa) produced in Sf9 cells (domain or fragment)
chain: NDEVGTPPESAITRSSEPVREDSSGMHHENQTYPPYSPQAQPQAIHRIDSPGLKPASQQKAEASSPVPYLSPETTPASSASAVNHNVSVTNVSLEEPAPAPPTSHASQPGCLGAPSAEAAHVVLRGEGPPLPPHADPAKVYRKEPYSEEMMRQNHILKQPALGHPGQRPDKEPNLAYEPQLPYIEKQASRDLEQPSYRYEVSSYTDQFSRNYDHRLRFEDRIPTYEDQWSYYDDKQPYQPRPFENQHPRDLDSRQHPEEASERGYFQRFEEPAPLSYDSRTRYEQLPRTSTLRHEEQPAPAYEVHNRYRPEAQPYSSTGPKSSEPKQYFDQYPRSYEQVPPPGFTSKTGHYEPLHGAAVVPPLIPSSQQKPEVLPSATKPQPPPPTLTEEEEDPAMKPQSVLTRVKMFENKRSASLENKKDVNDTASFKPPEVASKPPGASLAGPKPVPQSQFSEHDKTLYRLPEPQKPQVKPPEDIVRSNHYDPEEDEEYYRKQLSYFDRRSFESKPSAHLPAGHHSEPAKPVHSQSQPNFSSYSSKGKPETDAVDRSFSEKRYDPAQATPPPPPLPSQYSQPAPPLSSSSLHIHSKGAQGEGNSVSLDFQNSYMSKPDPPPSQSKPATFRPPTREDPPQTFYPQKSFPDKAPVNGAEQTQKTITPVYNRFTPKPYTSSARPFERKFESPKFNHNLLPSETVHKPELSSKTPTSPKTLMKAHSSTQPPEFDSGVETFSVHTDKPKYQMNNISTMPKAVPVSPSAVEEDEDEDGHTVVATARGIFNSNGGVLSSIETGVSIIIPQGAIPEGIEQEIYFKVCRDNSILPPLDKEKGETLLSPLVMCGPHGLKFLKPVELRLPHCDPKTWQNKCLPGDPNYLVGANCVSVLIDHF
In the case of B1, the Kd [1] is reported as roughly 10 nM.

B2: recombinant amino-terminal half dlg-like domain of ZO-1 (N-ZO-1; 1–862 aa) produced in Sf9 cells (domain or fragment, mouse, UniProt P39447 1-862, looked up)
chain: MSARAAAAKSTAMEETAIWEQHTVTLHRAPGFGFGIAISGGRDNPHFQSGETSIVISDVLKGGPAEGQLQENDRVAMVNGVSMDNVEHAFAVQQLRKSGKNAKITIRRKKKVQIPVSHPDPEPVSDNEDDSYDEEVHDPRAGRGALANRRSEKSWARDRSASRERSLSPRSDRRSVASSQPAKPTKVTLVKSRKNEEYGLRLASHIFVKEISQDSLAARDGNIQEGDVVLKINGTVTENMSLTDAKTLIERSKGKLKMVVQRDERATLLNVPDLSDSIHSANASERDDISEIQSLASDHSGRSHDRPPRRSQSRSPDQRSEPSDHSTQSPQQPSNGSLRSREEERMSKPGAISTPVKHVDDHPPKAVEEVTVEKNEKQTPTLPEPKPVYAQVGQPDVDLPVSPSDGALPNSAHEDGILRPSMKLVKFRKGDSVGLRLAGGNDVGIFVAGVLEDSPAAKEGLEEGDQILRVNNVDFTNIIREEAVLFLLDLPKGEEVTILAQKKKDVYRRIVESDVGDSFYIRTHFEYEKESPYGLSFNKGEVFRVVDTLYNGKLGSWLAIRIGKNHKEVERGIIPNKNRAEQLASVQYTLPKTAGGDRADFWRFRGLRSSKRNLRKSREDLSAQPVQTKFPAYERVVLREAGFLRPVTIFGPIADVAREKLAREEPDIYQIAKSEPRDAGTDHRSSGIIRLHTIKQIIDQDKHALLDVTPNAVDRLNYAQWYPIVVFLNPDSKQGVKTMRMRLCPESRKSARKLYERSHKLRKNNHHLFTTTINLNSMNDGWYGALKEAIQQQQNQLVWVSEGKADGATSDDLDLHDDRLSYLSAPGSEYSMYSTDSRHTSDYEDTDTEGGAYTDQELDETL
B2 was tested, and the Kd [2] was roughly 0.5 nM.
